{"source": "paper PMC3393700", "about": "“Localization and Sub-Cellular Shuttling of HTLV-1 Tax with the miRNA Machinery” (PLoS ONE, 2012)", "key": {"[1]": {"target": "Tax deletion mutant TD1 (Δ1–37) (HTLV-1, UniProt P03409 38-353)", "assay": "cell-based or functional assay"}, "[2]": {"target": "Tax deletion mutant TD55 (Δ55–92) (HTLV-1, UniProt P03409 1-353, Δ55–92)", "assay": "cell-based or functional assay"}}, "data": [{"binder": "Drosha (endogenous, 293T cell lysate) (enzyme, human (endogenous in 293T), UniProt Q9NRR4 1-1374, looked up) MMQGNTCHRMSFHPGRGCPRGRGGHGARPSAPSFRPQNLRLLHPQQPPVQYQYEPPSAPSTTFSNSPAPNFLPPRPDFVPFPPPMPPSAQGPLPPCPIRPPFPNHQMRHPFPVPPCFPPMPPPMPCPNNPPVPGAPPGQGTFPFMMPPPSMPHPPPPPVMPQQVNYQYPPGYSHHNFPPPSFNSFQNNPSSFLPSANNSSSPHFRHLPPYPLPKAPSERRSPERLKHYDDHRHRDHSHGRGERHRSLDRRERGRSPDRRRQDSRYRSDYDRGRTPSRHRSYERSRERERERHRHRDNRRSPSLERSYKKEYKRSGRSYGLSVVPEPAGCTPELPGEIIKNTDSWAPPLEIVNHRSPSREKKRARWEEEKDRWSDNQSSGKDKNYTSIKEKEPEETMPDKNEEEEEELLKPVWIRCTHSENYYSSDPMDQVGDSTVVGTSRLRDLYDKFEEELGSRQEKAKAARPPWEPPKTKLDEDLESSSESECESDEDSTCSSSSDSEVFDVIAEIKRKKAHPDRLHDELWYNDPGQMNDGPLCKCSAKARRTGIRHSIYPGEEAIKPCRPMTNNAGRLFHYRITVSPPTNFLTDRPTVIEYDDHEYIFEGFSMFAHAPLTNIPLCKVIRFNIDYTIHFIEEMMPENFCVKGLELFSLFLFRDILELYDWNLKGPLFEDSPPCCPRFHFMPRFVRFLPDGGKEVLSMHQILLYLLRCSKALVPEEEIANMLQWEELEWQKYAEECKGMIVTNPGTKPSSVRIDQLDREQFNPDVITFPIIVHFGIRPAQLSYAGDPQYQKLWKSYVKLRHLLANSPKVKQTDKQKLAQREEALQKIRQKNTMRREVTVELSSQGFWKTGIRSDVCQHAMMLPVLTHHIRYHQCLMHLDKLIGYTFQDRCLLQLAMTHPSHHLNFGMNPDHARNSLSNCGIRQPKYGDRKVHHMHMRKKGINTLINIMSRLGQDDPTPSRINHNERLEFLGDAVVEFLTSVHLYYLFPSLEEGGLATYRTAIVQNQHLAMLAKKLELDRFMLYAHGPDLCRESDLRHAMANCFEALIGAVYLEGSLEEAKQLFGRLLFNDPDLREVWLNYPLHPLQLQEPNTDRQLIETSPVLQKLTEFEEAIGVIFTHVRLLARAFTLRTVGFNHLTLGHNQRMEFLGDSIMQLVATEYLFIHFPDHHEGHLTLLRSSLVNNRTQAKVAEELGMQEYAITNDKTKRPVALRTKTLADLLESFIAALYIDKDLEYVHTFMNVCFFPRLKEFILNQDWNDPKSQLQQCCLTLRTEGKEPDIPLYKTLQTVGPSHARTYTVAVYFKGERIGCGKGPSIQQAEMGAAMDALEKYNFPQMAHQKRFIERKYRQELKEMRWEREHQEREPDETEDIKK", "values": [{"measurement": "miR326 expression (quantiMiR PCR, normalized to U6, relative to mock) in 293T cells transfected with the Tax mutant", "setting": "[1]", "value": 1.5, "unit": "fold"}, {"measurement": "miR326 expression (quantiMiR PCR, normalized to U6, relative to mock) in 293T cells transfected with the Tax mutant", "setting": "[2]", "value": 4, "unit": "fold"}]}]}
